This passage reports percent reduction of binding (ELISA signal; reference not named) results from publication PMC4569481.

The target in the assay is Dihydrolipoamide dehydrogenase (Lpd) of P. aeruginosa, recombinant full length (Lpd^1-478) (P. aeruginosa strain PAO1) (UniProt Q9I3D1). The assay can be described thus: ELISA; Lpd (5 μg/ml) coated on microtiter plates overnight at 4°C; vitronectin (0.01–12.5 μg/ml), recombinant vitronectin constructs (5 μg/ml) or clusterin (0.01–20 μg/ml) added 1 h at RT; detected with antibodies, absorbance at 492 nm. Background: ELISA stands for enzyme-linked immunosorbent assay.
Chain of Dihydrolipoamide dehydrogenase (Lpd) of P. aeruginosa, recombinant full length (Lpd^1-478) (P. aeruginosa strain PAO1) (Q9I3D1 whole entry): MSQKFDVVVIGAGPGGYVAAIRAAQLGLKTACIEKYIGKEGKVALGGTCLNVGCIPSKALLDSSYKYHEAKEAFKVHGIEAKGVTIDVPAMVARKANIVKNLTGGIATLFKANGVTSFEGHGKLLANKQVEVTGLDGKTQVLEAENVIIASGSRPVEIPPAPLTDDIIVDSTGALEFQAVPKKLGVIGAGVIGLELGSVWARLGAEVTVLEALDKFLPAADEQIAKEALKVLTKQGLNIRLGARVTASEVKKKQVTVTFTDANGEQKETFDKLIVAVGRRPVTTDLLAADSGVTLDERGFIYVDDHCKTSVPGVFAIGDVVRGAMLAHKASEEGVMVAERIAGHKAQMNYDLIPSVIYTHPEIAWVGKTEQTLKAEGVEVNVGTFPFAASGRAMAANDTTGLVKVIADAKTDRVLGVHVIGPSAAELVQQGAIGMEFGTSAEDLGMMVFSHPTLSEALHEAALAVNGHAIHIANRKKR

As to vitronectin^80-353 (domain or fragment), the percent reduction of binding (ELISA signal; reference not named) was 70%.
